Assay results reported in article doi:10.1101/2022.05.13.491168.

Experiments:
[1] = target: CvkR (Cas V-K repressor, Alr3614) of Anabaena (Nostoc) sp. PCC 7120 (Anabaena (Nostoc) sp. PCC 7120); assay: SEC
CvkR (Alr3614) = CvkR (Alr3614) (Anabaena (Nostoc) sp. PCC 7120, UniProt A0ACD6B984 19-168); assay: EMSA

Row | stoichiometry N [1] | Molecule | binding result (CvkR (Alr3614))
1 | 2 | CvkR (Cas V-K repressor, Alr3614) of Anabaena (Nostoc) sp. PCC 7120 (natural protein) | 
2 |  | Pcas12k (P82) (dsDNA) DNA 1: AAGAAACATCCTATAGAAGCATCTTCTAAAACACATTAGTGCTTTGTATAACATTATGTGTTTTGTATGGTATTTTATTTTT DNA 2: AAAAATAAAATACCATACAAAACACATAATGTTATACAAAGCACTAATGTGTTTTAGAAGATGCTTCTATAGGATGTTTCTT | binds
